This note sets out measurements from US20030138839A1.

The assay addresses human MDM2 (human) (UniProt Q00987). Kind of assay: cell-based or functional assay.

Sequence of human MDM2 (human) (Q00987 whole entry): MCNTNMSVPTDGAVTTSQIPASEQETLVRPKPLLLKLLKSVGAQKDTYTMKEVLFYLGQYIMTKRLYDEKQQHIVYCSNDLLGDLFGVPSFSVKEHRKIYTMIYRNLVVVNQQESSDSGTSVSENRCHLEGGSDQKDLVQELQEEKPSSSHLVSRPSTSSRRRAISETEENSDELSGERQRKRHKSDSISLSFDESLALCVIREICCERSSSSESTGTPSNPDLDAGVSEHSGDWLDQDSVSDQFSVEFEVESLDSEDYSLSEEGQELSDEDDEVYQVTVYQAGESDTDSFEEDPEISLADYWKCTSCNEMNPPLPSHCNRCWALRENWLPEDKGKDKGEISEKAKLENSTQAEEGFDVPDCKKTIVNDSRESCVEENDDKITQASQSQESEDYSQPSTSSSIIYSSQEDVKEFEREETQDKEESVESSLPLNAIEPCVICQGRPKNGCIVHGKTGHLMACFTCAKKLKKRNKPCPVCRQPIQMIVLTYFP

The substance HA-tagged human TSG101 showed a reduction of the p53 level expressed from a transfected construct in Saos-2 cells (Western blot, relative to alpha-tubulin) of 70%.
With human TSG101 protein, the MDM2 half-life after cycloheximide (Western blot); approximately 15 min without TSG101 co-expression is 28 min.
